The record followed here is publication PMC3991817.

Holding throughout (assay): EMSA
(In general: A gel shift assay detects complexes by their altered migration in electrophoresis.)

Data set [1] addresses T1, Pax8a (Oncorhynchus mykiss (rainbow trout), UniProt W0S3W1 1-458).
A further data set concerns the target T2, Nkx2-1 (Rattus norvegicus (rat), UniProt P23441 1-372).
T2 sequence: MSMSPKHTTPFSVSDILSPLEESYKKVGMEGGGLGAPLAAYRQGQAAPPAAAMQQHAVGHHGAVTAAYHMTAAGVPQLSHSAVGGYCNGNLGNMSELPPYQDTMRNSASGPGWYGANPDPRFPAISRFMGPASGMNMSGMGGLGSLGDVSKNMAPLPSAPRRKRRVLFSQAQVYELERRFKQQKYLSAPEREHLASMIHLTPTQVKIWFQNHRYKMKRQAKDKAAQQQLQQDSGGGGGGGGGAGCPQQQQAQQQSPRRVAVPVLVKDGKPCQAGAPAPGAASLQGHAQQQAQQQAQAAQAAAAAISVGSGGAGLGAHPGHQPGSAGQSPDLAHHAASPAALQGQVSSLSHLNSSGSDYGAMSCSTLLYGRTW

Data set [2] concerns the target T3, Pax8b (Oncorhynchus mykiss (rainbow trout), UniProt W0S4A0 1-303).
For data set [3], the target named is T3, Pax8b. This is another data set of the same source.
Data set [4] concerns the target T1, Pax8a. The source holds these as a separate data set.

Read-outs that look alike come from different tables or passages of the source.

B1: oligo B (dsDNA)
DNA 1: GAACCAGGGATTCTTCACACTTCATAGAGCAGCT
DNA 2: AGCTGCTCTATGAAGTGTGAAGAATCCCTGGTTC
Turning to B1, the binding result in the data set with Pax8a [1], with Nkx2-1 and with Pax8b [2] was “binds” throughout.

B2: oligonucleotide CT (dsDNA)
DNA 1: CTGTCTAAGCTTGAGTGGGCATCA
DNA 2: TGATGCCCACTCAAGCTTAGACAG
On to B2, for which the binding result with Pax8b [3] and with Pax8a [4] was “binds” in each case.
